Measured values reported in patent publication US20230057263A1 (CYTOMX THERAPEUTICS, published 2023).
No end group written: not given here. *: point of attachment. Biotin = O=C1N[C@H]2[C@H](CS[C@H]2CCCCC(=O)*)N1; code X = not defined here

Experiments:
[1] = biological target: T1, B X ITQTPYKVSISGTTV (reading uncertain); assay: Luminex bead assay, 1 ug/ml antibody [Cont.]
T1 construct: row 11 of the chart; also called biotinylated 15-mer, residues 10-24
T1 peptide: {Biotin-code X}-ITQTPYKVSISGTTV
Protocol: (§1) A set of experiments was performed to map the epitope recognized by the anti-CD3ε antibodies. In these experiments, the anti-CD3ε antibodies were assessed for binding to a collection of overlapping 15-mer peptides spanning amino acids 1-27 of human CD3ε protein using a Luminex bead assay. Control CD3 proteins, control peptides, or the test peptides were immobilized on Luminex beads and incubated with a panel of anti-CD3 antibodies. Binding of the anti-CD3 antibodies to the peptide/protein immobilized on the Luminex bead was detected by R-Phycoerythrin conjugated secondary antibody.
(§2) Recombinant CD3 proteins (human CD3d/e heterodimer and cynomolgus CD3-epsilon (Sinobiological)) and control peptides (#p1, #p2, and #p3) were conjugated to Luminex beads using standard EDC/Sulfo-NHS chemistry. The 15-mer test peptides were synthesized as biotinylated peptides at JPT Peptide Technologies Gmbh and were immobilized on streptavidin-conjugated Luminex beads that were made using standard EDC/Sulfo-NHS chemistry and streptavidin (Invitrogen Cat. No. 434301 lot 1626028A). The Luminex beads with immobilized peptides or reagents were incubated with 50 ul of a panel of anti-CD3 antibodies (1 ug/ml) for one hour at room temperature, washed two times, incubated with mixture of anti-human and anti-mouse IgG-RPE (Jackson Immunoresearch 109-116-097 and Southern Biotech 1030-09, respectively) for 30 mins at RT, washed three times, and analyzed in the Luminex instrument to assess the level of bound anti-CD3 antibodies.

[2] = biological target: T2, B X QDGNEEMAGITQTP (reading uncertain); assay: Luminex bead assay, 1 ug/ml antibody [Cont.]
T2 construct: row 22 of the chart; 14 residues; also called alanine-scan peptide G8A
T2 peptide: {Biotin-code X}-QDGNEEMAGITQTP
Protocol: as §1, §2

[3] = biological target: T3, B X QDGNEEAGGITQTP (reading uncertain); assay: Luminex bead assay, 1 ug/ml antibody [Cont.]
T3 construct: row 21 of the chart; 14 residues; also called alanine-scan peptide M7A
T3 peptide: {Biotin-code X}-QDGNEEAGGITQTP
Protocol: as §1, §2

[4] = biological target: T4, B X QTPYKVSISGTTVIL (reading uncertain); assay: Luminex bead assay, 1 ug/ml antibody [Cont.]
T4 construct: row 13 of the chart; also called biotinylated 15-mer, residues 12-26
T4 peptide: {Biotin-code X}-QTPYKVSISGTTVIL
Protocol: as §1, §2

[5] = biological target: T5, BSA alone (bovine, UniProt P02769); assay: Luminex bead assay, 1 ug/ml antibody [Cont.]
T5 construct: carrier protein without peptide
Protocol: as §1, §2

[6] = biological target: T6, B X ADGNEEMGGITQTPY (reading uncertain); assay: Luminex bead assay, 1 ug/ml antibody [Cont.]
T6 construct: row 15 of the chart; also called alanine-scan peptide Q1A
T6 peptide: {Biotin-code X}-ADGNEEMGGITQTPY
Protocol: as §1, §2

[7] = biological target: T7, B X QDANEEMGGITQTP (reading uncertain); assay: Luminex bead assay, 1 ug/ml antibody [Cont.]
T7 construct: row 17 of the chart; 14 residues; also called alanine-scan peptide G3A
T7 peptide: {Biotin-code X}-QDANEEMGGITQTP
Protocol: as §1, §2

[8] = biological target: T8, B X QDGNEEMGGIAQTP (reading uncertain); assay: Luminex bead assay, 1 ug/ml antibody [Cont.]
T8 construct: row 25 of the chart; 14 residues; also called alanine-scan peptide T11A
T8 peptide: {Biotin-code X}-QDGNEEMGGIAQTP
Protocol: as §1, §2

[9] = biological target: T9, cynomolgus CD3-epsilon (cynomolgus, UniProt Q95LI5 22-198); assay: flow cytometry on cynomolgus T cells
T9 construct: whole, on cells; also called CD3ε on cynomolgus T cells / PBMCs
Protocol: In these experiments, human or cynomolgus T cells were incubated with an anti-CD3ε antibody and binding was assessed by flow cytometry.
Briefly, donor T cells from either human or cynomolgus donors were resuspended in FACS buffer containing 0.1% sodium azide and aliquoted in 100 μL volumes. For incubation, 100 μL aliquots of donor T cells were mixed with 50 μL of antibodies diluted in FACS buffer containing 0.1% sodium azide. The cells were then washed twice with FACS buffer containing sodium azide. The bound antibody was detected by incubating cells for 60 minutes with a 1:200 dilution of SAV-RPE (Invitrogen Cat No. SA10044, Lot. 1542820A) or 1:100 dilution of goat-anti-Mouse Fcγ-RPE (Jackson Cat. No. 115-116-071, Lot. 108668, diluted in 0.2% goat serum). The cells were washed, fixed, and analyzed with an Accuri Flow Cytometer.
Treatment with OKT3, SP34-2, and diL2K antibodies were used as positive controls for T cell binding. […] Treatment with OKT3, SP34-2, and diL2K antibodies were used as controls for T cell binding with only SP34-2 binding to cynomolgus T cells, as expected.

T9 sequence (Q95LI5 22-198): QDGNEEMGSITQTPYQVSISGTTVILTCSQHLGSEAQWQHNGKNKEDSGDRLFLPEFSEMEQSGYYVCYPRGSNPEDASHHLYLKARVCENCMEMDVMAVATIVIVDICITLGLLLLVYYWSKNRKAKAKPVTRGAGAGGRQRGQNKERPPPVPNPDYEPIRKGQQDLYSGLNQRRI
T5 sequence (P02769 25-607 limits assumed): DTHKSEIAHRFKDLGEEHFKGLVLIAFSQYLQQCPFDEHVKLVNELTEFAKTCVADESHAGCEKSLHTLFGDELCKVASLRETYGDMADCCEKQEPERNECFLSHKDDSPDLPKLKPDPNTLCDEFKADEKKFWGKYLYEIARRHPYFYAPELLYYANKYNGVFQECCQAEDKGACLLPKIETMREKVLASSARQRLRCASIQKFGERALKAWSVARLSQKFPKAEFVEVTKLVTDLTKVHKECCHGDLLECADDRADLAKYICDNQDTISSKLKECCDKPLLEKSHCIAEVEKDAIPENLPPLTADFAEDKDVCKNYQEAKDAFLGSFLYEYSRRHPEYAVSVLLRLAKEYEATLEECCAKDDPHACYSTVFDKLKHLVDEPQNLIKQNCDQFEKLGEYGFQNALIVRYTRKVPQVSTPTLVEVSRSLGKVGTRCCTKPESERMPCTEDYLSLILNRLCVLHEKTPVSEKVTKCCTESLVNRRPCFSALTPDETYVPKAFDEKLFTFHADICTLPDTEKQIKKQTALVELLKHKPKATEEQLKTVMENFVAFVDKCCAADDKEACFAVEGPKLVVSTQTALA

B1: 6d59 (antibody, V domains shown)
VH: QVHLVESGGGVVQPGRSLRLSCAASGFKFRSYGMHWVRQAPGKGLEWVAIIWYDGSKRYYADSVKGRFTISRDNSKNTLYLQMSSLRAEDTAVYYCARDLITGTTDYWGQGTLVTVSS
VL: DVVMTQSPLSLPVTLGQPASISCRSSRSLVYSDGNTHLIWFQQRPGQSPRRLIYRVSNRVSGVPDRFSGSGSGTDFTLKISRVEAEDVGVYYCLQGAHWPYTFGQGTKLEIKR
notes: also called 6d59.1; VCD3-6d59.1
[1]
  Luminex signal: 29.5
[2]
  Luminex signal: 2510
[3]
  Luminex signal: 2580
[4]
  Luminex signal: 31.5
[5]
  Luminex signal: 420
[6]
  Luminex signal: 11300
[7]
  Luminex signal: 32.5
[8]
  Luminex signal: 2910
[9]
  EC50 (read off the curve): ~0.07 nM
